Molecular target: T1, His-MBP-tagged SSRP1 (1–709) (human, UniProt Q08945 1-709)
T1 construct: SSRP1 subunit of human FACT, residues 1-709; The tag was still on SSRP1 when the complex with Spt16 was purified on Nickel-NTA; it was cut afterwards; also called structure-specific recognition protein 1; source: E. coli BL21(DE3), purified (Nickel-NTA)
Experiment: pull-down; purified Spt16 and His-MBP-tagged SSRP1 mixed at a 1:1 molar ratio, complex purified on Nickel-NTA by the tag of SSRP1; after TEV cleavage again Nickel-NTA and Superdex 200 SEC; 50 mM NaH2PO4-Na2HPO4, 300 mM NaCl, pH 7.5
Details: both partners purified

T1 sequence (Q08945 whole entry, the tested form may be a part): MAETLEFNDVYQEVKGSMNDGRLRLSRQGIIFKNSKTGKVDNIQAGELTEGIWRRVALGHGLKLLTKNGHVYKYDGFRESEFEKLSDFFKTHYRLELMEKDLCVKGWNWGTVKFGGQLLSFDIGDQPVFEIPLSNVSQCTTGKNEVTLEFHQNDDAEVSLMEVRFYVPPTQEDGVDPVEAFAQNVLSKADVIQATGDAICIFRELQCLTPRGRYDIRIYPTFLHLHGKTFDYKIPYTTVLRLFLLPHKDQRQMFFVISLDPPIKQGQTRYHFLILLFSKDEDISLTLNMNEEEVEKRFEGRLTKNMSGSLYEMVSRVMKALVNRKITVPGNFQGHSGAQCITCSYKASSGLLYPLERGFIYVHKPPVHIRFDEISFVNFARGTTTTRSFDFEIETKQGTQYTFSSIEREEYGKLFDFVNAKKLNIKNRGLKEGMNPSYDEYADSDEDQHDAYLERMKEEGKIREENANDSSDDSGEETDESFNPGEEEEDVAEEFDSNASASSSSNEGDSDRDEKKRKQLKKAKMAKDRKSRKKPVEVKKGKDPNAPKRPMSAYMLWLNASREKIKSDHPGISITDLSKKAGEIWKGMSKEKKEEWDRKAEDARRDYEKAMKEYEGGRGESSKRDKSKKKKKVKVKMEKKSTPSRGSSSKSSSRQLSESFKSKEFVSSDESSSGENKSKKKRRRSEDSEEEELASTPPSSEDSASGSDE

binding result: binds
B1: Spt16 (501–1006) (domain or fragment, human, UniProt Q9Y5B9 501-1006, looked up)
chain: QIQKARKSNVSYKNPSLMPKEPHIREMKIYIDKKYETVIMPVFGIATPFHIATIKNISMSVEGDYTYLRINFYCPGSALGRNEGNIFPNPEATFVKEITYRASNIKAPGEQTVPALNLQNAFRIIKEVQKRYKTREAEEKEKEGIVKQDSLVINLNRSNPKLKDLYIRPNIAQKRMQGSLEAHVNGFRFTSVRGDKVDILYNNIKHALFQPCDGEMIIVLHFHLKNAIMFGKKRHTDVQFYTEVGEITTDLGKHQHMHDRDDLYAEQMEREMRHKLKTAFKNFIEKVEALTKEELEFEVPFRDLGFNGAPYRSTCLLQPTSSALVNATEWPPFVVTLDEVELIHFERVQFHLKNFDMVIVYKDYSKKVTMINAIPVASLDPIKEWLNSCDLKYTEGVQSLNWTKIMKTIVDDPEGFFEQGGWSFLEPEGEGSDAEEGDSESEIEDETFNPSEDDYEEEEEDSDEDYSSEAEESDYSKESLGSEEESGKDWDELEEEARKADRESRY
notes: Spt16 subunit of human FACT, residues 501-1006 (without the N-terminal domain); His-MBP tag cut with TEV protease and removed by SEC before mixing with SSRP1; also called suppressor of Ty 16; Spt16 without the NTD; source: E. coli BL21(DE3), purified (Nickel-NTA, TEV cleavage, Superdex 200 SEC)

— article PMC5295774, “Stabilization of Nucleosomes by Histone Tails and by FACT Revealed by spFRET Microscopy” (Cancers, 2017)
